Laboratory results taken from patent publication US20250002576A1.

Target: human Claudin 18.2 (human) (UniProt P56856)
Assay: flow cytometry, antibody dilution series on hCLDN18.2-expressing MiaPaCa-2 cells

EC50: 7.2 nM
B1: YU577-E08 (antibody, V domains shown)
VH: QVQLVQSGAEVKKPGASVKVSCKASGYTFTSYYMHWVRQAPGQGLEWMGIINPSGGSTSYAQKFQGRVTMTRDTSTSTVYMELSSLRSEDTAVYYCATRQFDYWGQGTLVTVSS
VL: QSVLTQPPSVSAAPGQKVTISCSGSSSNIGNNYVSWYQQLPGTAPKLLIYENNKRPSGIPDRFSGSKSGTSATLGITGLQTGDEADYYCGTWDSSLSAAVFGGGTKVTVL
